# Test results published in patent publication US20250222125A1, “Anti-FGFR2b Antibodies, Conjugates and Methods of Use” (BeiGene, Ltd., priority 2024, published 2025).
# Tests used:
# [1] = molecular target: human FGFR2b protein (recombinant, coated on ELISA plates) (human) (UniProt P21802); experiment: ELISA, plate-coated human FGFR2b
# [2] = molecular target: human FGFR2c on cells (human) (UniProt P21802); experiment: flow cytometry, human FGFR2c OE cells
# Sequence of human FGFR2c on cells (human) (P21802 22-821): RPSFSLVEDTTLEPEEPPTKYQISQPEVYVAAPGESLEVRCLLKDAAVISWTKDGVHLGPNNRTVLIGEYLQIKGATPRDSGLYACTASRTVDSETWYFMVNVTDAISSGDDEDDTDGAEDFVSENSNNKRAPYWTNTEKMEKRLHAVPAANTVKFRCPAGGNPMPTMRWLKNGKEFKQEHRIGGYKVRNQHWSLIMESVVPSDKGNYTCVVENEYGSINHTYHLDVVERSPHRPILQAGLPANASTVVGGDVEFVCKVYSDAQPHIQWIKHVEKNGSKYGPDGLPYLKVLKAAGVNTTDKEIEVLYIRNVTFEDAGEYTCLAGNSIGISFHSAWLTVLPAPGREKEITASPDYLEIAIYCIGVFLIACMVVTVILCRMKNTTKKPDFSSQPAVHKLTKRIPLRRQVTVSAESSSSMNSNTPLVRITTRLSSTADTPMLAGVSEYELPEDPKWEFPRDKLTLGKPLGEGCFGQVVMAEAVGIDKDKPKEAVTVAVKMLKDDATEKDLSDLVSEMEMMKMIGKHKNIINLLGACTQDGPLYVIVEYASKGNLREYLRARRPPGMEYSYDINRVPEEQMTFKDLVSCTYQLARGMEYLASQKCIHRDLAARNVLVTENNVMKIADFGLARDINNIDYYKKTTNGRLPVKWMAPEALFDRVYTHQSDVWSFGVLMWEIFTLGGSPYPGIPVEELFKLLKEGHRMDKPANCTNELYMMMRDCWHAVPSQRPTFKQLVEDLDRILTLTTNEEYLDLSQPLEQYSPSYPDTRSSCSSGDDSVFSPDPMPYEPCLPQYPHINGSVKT
substance,measurement,setting,value
Isotype IgG control CB-6 (antibody),Emax (OD450),[1],0.08 OD450
same,Emax (MFI),[2],27 MFI
